Measured values reported in the supplement of paper PMC7125110.
± gives the standard error. For some assays here: Fewer inactive variants are shown than the library holds.

B1: glmS ribozyme (parent)
chain: AUAAAAGCGCCAGAACUACAGAAAUGUAGUUGACGAGGAGGAGGUUUAUCGAAUUUUCGGCGGAUGCCUCCAAA

How the values were obtained:
Conditions in all cases: with glucosamine-6-phosphate
glucosamine-6-phosphate [1] = variants of: B1; test: kcat; higher = faster cleavage; RNA array
Procedure, shortened: (§1)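 Ribozyme variants carrying barcodes were transcribed in situ on sequenced MiSeq chips by E. coli RNA polymerase and tracked at 37 °C with a hybridised Cy3 probe. They were exposed to 40 μM to 10 mM glucosamine-6-phosphate in HEPES/KCl/Mg(OAc)2 buffer. kobs came from exponential decay fits of normalised per-tile medians, and kcat and KM from weighted Michaelis–Menten fits.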

glucosamine-6-phosphate [2] = variants of: B1; test: KM; higher = weaker cofactor use; RNA array
Procedure, shortened: as §1

glucosamine-6-phosphate [3] = variants of: B1; test: self-cleavage kobs at 40 uM GlcN6P; higher = faster cleavage; RNA array
Procedure, shortened: as §1

glucosamine-6-phosphate [4] = variants of: B1; test: self-cleavage kobs at 160 uM GlcN6P; higher = faster cleavage; RNA array
Procedure, shortened: as §1

glucosamine-6-phosphate [5] = variants of: B1; test: self-cleavage kobs at 640 uM GlcN6P; higher = faster cleavage; RNA array
Procedure, shortened: as §1

glucosamine-6-phosphate [6] = variants of: B1; test: self-cleavage kobs at 2500 uM GlcN6P; higher = faster cleavage; RNA array
Procedure, shortened: as §1

glucosamine-6-phosphate [7] = variants of: B1; test: self-cleavage kobs at 10000 uM GlcN6P; higher = faster cleavage; RNA array
Procedure, shortened: as §1

Variant | kcat (glucosamine-6-phosphate [1]) | KM (glucosamine-6-phosphate [2]) | self-cleavage kobs at 40 uM GlcN6P (glucosamine-6-phosphate [3]) | self-cleavage kobs at 160 uM GlcN6P (glucosamine-6-phosphate [4]) | self-cleavage kobs at 640 uM GlcN6P (glucosamine-6-phosphate [5]) | self-cleavage kobs at 2500 uM GlcN6P (glucosamine-6-phosphate [6]) | self-cleavage kobs at 10000 uM GlcN6P (glucosamine-6-phosphate [7])
G40A U46C | 0.00192 ± 0.00051 s⁻¹ | 1280 ± 450 µM | 7.21e-05 ± 1.4e-05 s⁻¹ | 0.000173 ± 3.9e-05 s⁻¹ | 0.000699 ± 0.00012 s⁻¹ | 0.00107 ± 0.00036 s⁻¹ | 0.00192 ± 0.00054 s⁻¹
G40C G41A | 0.000118 ± 1.4e-05 s⁻¹ | 667 ± 260 µM | – | – | 5.69e-05 ± 8.6e-06 s⁻¹ | 0.000104 ± 1.1e-05 s⁻¹ | 0.000101 ± 1.3e-05 s⁻¹
G40U G41U | 8.36e-05 ± 7.4e-06 s⁻¹ | 901 ± 330 µM | < 1e-05 s⁻¹ | – | 2.92e-05 ± 8e-06 s⁻¹ | 7.1e-05 ± 8.5e-06 s⁻¹ | 7.34e-05 ± 7e-06 s⁻¹
G40U G41C | 9.58e-05 ± 2.6e-05 s⁻¹ | – | – | < 1e-05 s⁻¹ | – | 8.94e-05 ± 1.2e-05 s⁻¹ | 7.67e-05 ± 1.2e-05 s⁻¹
G40C U65A | 0.000379 ± 3.9e-05 s⁻¹ | 1830 ± 350 µM | – | 3.58e-05 ± 1.5e-05 s⁻¹ | 0.0001 ± 1.9e-05 s⁻¹ | 0.000199 ± 3.6e-05 s⁻¹ | 0.000346 ± 6.3e-05 s⁻¹
G40U U65G G66U | 3.4e-05 ± 4.8e-06 s⁻¹ | – | < 1e-05 s⁻¹ | – | – | – | 3.38e-05 ± 1.5e-05 s⁻¹
G40C U47A | 0.00182 ± 0.0003 s⁻¹ | 1170 ± 310 µM | 7.98e-05 ± 1.1e-05 s⁻¹ | 0.000192 ± 3.4e-05 s⁻¹ | 0.000511 ± 0.0001 s⁻¹ | 0.00128 ± 0.00024 s⁻¹ | 0.0017 ± 0.00019 s⁻¹
G40U U57C | 2.46e-05 ± 1.1e-05 s⁻¹ | – | < 1e-05 s⁻¹ | – | – | 3.3e-05 ± 1.4e-05 s⁻¹ | –
G40A G43C U47C C50G U65C | 2.52e-05 ± 1.1e-05 s⁻¹ | – | – | – | – | – | –
G41C U55G | 0.00012 ± 1.1e-05 s⁻¹ | 1930 ± 750 µM | – | – | – | 8.8e-05 ± 3.3e-05 s⁻¹ | 9.95e-05 ± 1.2e-05 s⁻¹
G41C U55C | 0.000176 ± 4.4e-05 s⁻¹ | – | – | – | – | 0.00012 ± 3.6e-05 s⁻¹ | 0.000129 ± 3.9e-05 s⁻¹
G41U U47C | 0.000156 ± 5.1e-05 s⁻¹ | – | – | – | 4.55e-05 ± 1.3e-05 s⁻¹ | 0.000205 ± 4.6e-05 s⁻¹ | 0.000128 ± 2.3e-05 s⁻¹
G41C C70A | 0.000866 ± 0.00015 s⁻¹ | 762 ± 230 µM | 5.77e-05 ± 8.1e-06 s⁻¹ | 0.000116 ± 2.1e-05 s⁻¹ | 0.000392 ± 6.6e-05 s⁻¹ | 0.00078 ± 0.00012 s⁻¹ | 0.000775 ± 9.6e-05 s⁻¹
G40A U55C | 0.0017 ± 0.00029 s⁻¹ | 1980 ± 650 µM | 4.24e-05 ± 1.5e-05 s⁻¹ | – | 0.00035 ± 0.0001 s⁻¹ | 0.00119 ± 0.00036 s⁻¹ | 0.0014 ± 0.00025 s⁻¹
G40C U55G | 0.000581 ± 0.00017 s⁻¹ | – | – | 0.000102 ± 2.2e-05 s⁻¹ | 0.000531 ± 0.0001 s⁻¹ | 0.000712 ± 0.00015 s⁻¹ | 0.00045 ± 8.6e-05 s⁻¹
G40U A42G | 0.00742 ± 0.00078 s⁻¹ | 1330 ± 220 µM | 0.000214 ± 4e-05 s⁻¹ | 0.00072 ± 0.00018 s⁻¹ | 0.00267 ± 0.00058 s⁻¹ | 0.00567 ± 0.001 s⁻¹ | 0.00603 ± 0.001 s⁻¹
G41C U54A | 8.93e-05 ± 2e-05 s⁻¹ | – | – | – | 7.27e-05 ± 1.6e-05 s⁻¹ | 7.27e-05 ± 1.5e-05 s⁻¹ | 8.37e-05 ± 2.2e-05 s⁻¹
G40A C67U | 0.000237 ± 3.9e-05 s⁻¹ | 964 ± 350 µM | – | 2.41e-05 ± 1.1e-05 s⁻¹ | 9.44e-05 ± 9.9e-06 s⁻¹ | 0.000218 ± 2.6e-05 s⁻¹ | 0.000189 ± 2.6e-05 s⁻¹
G41A A48C | 1.6e-05 ± 1.9e-06 s⁻¹ | 2350 ± 1000 µM | < 1e-05 s⁻¹ | – | < 1e-05 s⁻¹ | – | –
G40A A53C | 0.00179 ± 0.0007 s⁻¹ | – | – | 0.000183 ± 5.8e-05 s⁻¹ | 0.000386 ± 0.00011 s⁻¹ | 0.000919 ± 0.0002 s⁻¹ | 0.00217 ± 0.0008 s⁻¹
G40A U45C C70U | 0.000583 ± 6.9e-05 s⁻¹ | 2900 ± 550 µM | – | – | 0.000105 ± 2.7e-05 s⁻¹ | 0.000288 ± 8e-05 s⁻¹ | 0.000432 ± 0.00015 s⁻¹
G40C C70U | 0.000498 ± 0.00011 s⁻¹ | 512 ± 240 µM | 4.61e-05 ± 9e-06 s⁻¹ | 0.000155 ± 3.2e-05 s⁻¹ | 0.0002 ± 3.4e-05 s⁻¹ | 0.000428 ± 9.7e-05 s⁻¹ | 0.000555 ± 6.8e-05 s⁻¹
G41A G66A | 0.0028 ± 0.0014 s⁻¹ | – | 6.67e-05 ± 1.2e-05 s⁻¹ | 0.000116 ± 3.7e-05 s⁻¹ | 0.000562 ± 8.6e-05 s⁻¹ | 0.000832 ± 0.00018 s⁻¹ | 0.0028 ± 0.00037 s⁻¹
G41U A42U | 0.00136 ± 0.00056 s⁻¹ | – | 9.43e-05 ± 1.1e-05 s⁻¹ | 0.000106 ± 1.9e-05 s⁻¹ | 0.000464 ± 5.5e-05 s⁻¹ | 0.00119 ± 0.00014 s⁻¹ | 0.00108 ± 0.00015 s⁻¹
G40U C70A | 0.000457 ± 7.9e-05 s⁻¹ | 1360 ± 460 µM | – | 3.45e-05 ± 1.4e-05 s⁻¹ | 0.000149 ± 1.8e-05 s⁻¹ | 0.000434 ± 7.3e-05 s⁻¹ | 0.000372 ± 4.6e-05 s⁻¹
G41C U46C | 3.31e-05 ± 3.8e-06 s⁻¹ | 2440 ± 1200 µM | < 1e-05 s⁻¹ | < 1e-05 s⁻¹ | – | – | 2.65e-05 ± 9.7e-06 s⁻¹
G41C U65A | 7.02e-05 ± 4.5e-06 s⁻¹ | 1620 ± 350 µM | < 1e-05 s⁻¹ | – | – | 4.49e-05 ± 1e-05 s⁻¹ | 5.94e-05 ± 1.1e-05 s⁻¹
G40C U46A | 0.000264 ± 7.1e-05 s⁻¹ | – | – | – | 7.92e-05 ± 1.6e-05 s⁻¹ | 0.000286 ± 4.6e-05 s⁻¹ | 0.000207 ± 3.1e-05 s⁻¹
G40U A48C | 5.25e-05 ± 2.1e-05 s⁻¹ | – | – | < 1e-05 s⁻¹ | – | – | 3.45e-05 ± 9.8e-06 s⁻¹
G40U A48U | 7.9e-05 ± 9.5e-06 s⁻¹ | 3220 ± 1300 µM | < 1e-05 s⁻¹ | – | – | 3.77e-05 ± 1.6e-05 s⁻¹ | 5.95e-05 ± 8.8e-06 s⁻¹
